Experimental data taken from article PMC9098913, “In vitro reconstitution of Escherichia coli divisome activation” (Nature Communications, 2022).
Read-outs that look alike come from different tables or passages of the source.

Columns and labels:
[1] = Membrane off-binding rate (koff) of FtsA from FRAP
Description: We could also use the data from these bleaching experiments to quantify the membrane-binding kinetics and diffusion of membrane-bound proteins by analysing the change of the fluorescence profile during recovery.
Equimolar concentrations of Cy3- and Cy5-labelled FtsA, supplemented with 20% unlabelled FtsA were used to study FRET and FRAP. Five pre-bleach frames were acquired, followed by acceptor photobleaching of a rectangular ROI with 40% 641 nm laser power and a dwell size of 1 µs/pixel, 75% overlapping lines. The recovery of the signal or the increase in donor intensity were measured with either two frames or one frame per second.
Bleaching the acceptor dye leads to an increase in the donor intensity, which can be used to quantify the Foerster Resonance energy transfer (FRET)[48]. FRET efficiency was quantified with E%=Ipost/Ipost+Ipre⋅100 , where Ipost is the intensity of the […] and Ipre is the […]. […] To extract the contribution of both processes, we adjusted a routine recently published by Gerganova et al.[33]. In short, the code provides the contribution of both modes of recovery by analysing the shape of the fluorescence recovery profile. […] Contribution of diffusion leads to a change of the slope of the outer borders of the bleached region (S4h right). Thus, by measuring the change of the slope of the border recovery, diffusion and simple on/off binding can be distinguished. We developed “FRAPdiff”, a graphical user interface, which uses the original fit routine by David Rutkowski. It can be used directly on.tiff movies with annotated bleach regions as ImageJ ROIs. In addition, we added optional bleach correction, user selectable projection axis (x or y), and optional mirroring of the recovery profiles, if bleaching was not symmetric. The original fit routine for estimating the recovery and diffusion dynamics can be found at https://github.com/davidmrutkowski/1DReflectingDiffusion. FRAPdiff is available at 10.5281/zenodo.6400639[49] under the GPLv3 open-source license.

FtsZ = conditions: His-tagged FtsA
Method: Co-treadmilling of FtsA with FtsZ relies on the dynamic exchange of FtsA on the membrane. […] To investigate the respective contributions of membrane binding kinetics and FtsA self-interaction on the colocalization dynamics with FtsZ, we wanted to create variants of the two FtsA proteins that are permanently attached to the membrane. […] Accordingly, in these experiments the proteins only differ in their tendency to form oligomers.
To study colocalization of His-tagged variants of FtsA, 0.5–1 µM of Cy5 labelled His-tagged FtsAs were added to the chamber, incubated for 20 min and washed 6x with reaction buffer. […] To control the density of membrane-bound FtsA, SUVs without and with Tris-NTA lipids were mixed to obtain the respective Tris-NTA concentrations. To perform FRET/FRAP experiments, equimolar concentrations of Cy3 and Cy5 labelled His-tagged FtsAs (total 0.5–1 µM) or His-SUMO-Cys were added to a chamber and treated as above. […] FRAP experiments were performed as described before.
Treadmilling dynamics, were quantified using an automated image analysis protocol previously developed by our group. To visualize colocalization of the co-treadmilling FtsZ & FtsA filaments, we used dual-colour videos obtained at an acquisition rate of one frame per 2 s. The two channels were aligned using FIJI’s 3TP align plugin. Both channels were then subjected to the image subtraction protocol and colocalization was measured as described above.

B1: FtsA R286W (protein)
chain: MIKATDRKLVVGLEIGTAKVAALVGEVLPDGMVNIIGVGSCPSRGMDKGGVNDLESVVKCVQRAIDQAELMADCQISSVYLALSGKHISCQNEIGMVPISEEEVTQEDVENVVHTAKSVRVRDEHRVLHVIPQEYAIDYQEGIKNPVGLSGVRMQAKVHLITCHNDMAKNIVKAVERCGLKVDQLIFAGLASSYSVLTEDERELGVCVVDIGGGTMDIAVYTGGALRHTKVIPYAGNVVTSDIAYAFGTPPSDAEAIKVRHGCALGSIVGKDESVEVPSVGGRPPWSLQRQTLAEVIEPRYTELLNLVNEEILQLQEKLRQQGVKHHLAAGIVLTGGAAQIEGLAACAQRVFHTQVRIGAPLNITGLTDYAQEPYYSTAVGLLHYGKESHLNGEAEVEKRVTASVGSWIKRLNSWLRKEF
modifications: Cy3 or Cy5 at the N-terminus in the labelled form (labelled CLEPTGG peptide conjugated to the 5xGly tag by sortagging); unlabelled protein also used; left off: TwinStrep-SUMO, N-terminal, cleaved | 5x
[1]; 0.4µM FtsA alone, replicate Exp.8
  Off binding rate: 2.05E-01
[1]; 0.4µM FtsA alone, replicate Exp.9
  Off binding rate: 2.55E-01
[1]; 0.4 µM FtsA, p-value 6.73 × 10^−6
  membrane exchange (off-rate): 0.37 ± 0.24 s⁻¹
[1]; 0.4µM, + FtsN&Z, Mean, n=9
  Off binding rate: 0.1008
[1]; 0.4µM, + FtsN&Z, replicate Exp.1
  Off binding rate: 3.83E-02
[1]; 0.4µM, + FtsN&Z, replicate Exp.2
  Off binding rate: 7.71E-02
[1]; 0.4µM, + FtsN&Z, replicate Exp.3
  Off binding rate: 4.63E-02
[1]; 0.4µM, + FtsN&Z, replicate Exp.4
  Off binding rate: 2.42E-01
[1]; 0.4µM, + FtsN&Z, replicate Exp.5
  Off binding rate: 1.75E-01
[1]; 0.4µM, + FtsN&Z, replicate Exp.6
  Off binding rate: 5.12E-02
[1]; 0.4µM, + FtsN&Z, replicate Exp.7
  Off binding rate: 5.06E-02
[1]; 0.4µM, + FtsN&Z, replicate Exp.8
  Off binding rate: 1.16E-01
[1]; 0.4µM, + FtsN&Z, replicate Exp.9
  Off binding rate: 1.11E-01
[1]; 0.4µM, + FtsN, Mean, n=6
  Off binding rate: 0.1799
[1]; 0.4µM, + FtsN, replicate Exp.1
  Off binding rate: 1.51E-01
[1]; 0.4µM, + FtsN, replicate Exp.2
  Off binding rate: 4.77E-02
[1]; 0.4µM, + FtsN, replicate Exp.3
  Off binding rate: 2.92E-01
[1]; 0.4µM, + FtsN, replicate Exp.4
  Off binding rate: 2.85E-01
[1]; 0.4µM, + FtsN, replicate Exp.5
  Off binding rate: 1.01E-01
[1]; 0.4µM, + FtsN, replicate Exp.6
  Off binding rate: 2.02E-01
[1]; 0.4µM, + FtsZ, Mean, n=8
  Off binding rate: 0.1794
[1]; 0.4µM, + FtsZ, replicate Exp.1
  Off binding rate: 1.34E-01
[1]; 0.4µM, + FtsZ, replicate Exp.2
  Off binding rate: 2.29E-01
[1]; 0.4µM, + FtsZ, replicate Exp.3
  Off binding rate: 1.49E-01
[1]; 0.4µM, + FtsZ, replicate Exp.4
  Off binding rate: 2.39E-01
[1]; 0.4µM, + FtsZ, replicate Exp.5
  Off binding rate: 1.49E-01
[1]; 0.4µM, + FtsZ, replicate Exp.6
  Off binding rate: 1.15E-01
[1]; 0.4µM, + FtsZ, replicate Exp.7
  Off binding rate: 3.30E-01
[1]; 0.4µM, + FtsZ, replicate Exp.8
  Off binding rate: 8.97E-02
[1]; 0.8 µM FtsA + FtsN&Z
  Off binding rate, mean: 0.0945 s
[1]; 0.8 µM FtsA + FtsN
  Off binding rate, mean: 0.188 s
[1]; 0.8 µM FtsA + FtsZ
  Off binding rate, mean: 0.161 s
[1]; 0.8µM FtsA alone, Mean, n=8
  Off binding rate: 0.3865
[1]; 0.8 µM FtsA alone
  Off binding rate, mean: 0.386 s
[1]; 0.8µM FtsA alone, replicate Exp.1
  Off binding rate: 6.04E-01
[1]; 0.8µM FtsA alone, replicate Exp.2
  Off binding rate: 6.73E-01
[1]; 0.8µM FtsA alone, replicate Exp.3
  Off binding rate: 7.27E-01
[1]; 0.8µM FtsA alone, replicate Exp.4
  Off binding rate: 1.48E-01
[1]; 0.8µM FtsA alone, replicate Exp.5
  Off binding rate: 5.66E-01
[1]; 0.8µM FtsA alone, replicate Exp.6
  Off binding rate: 9.49E-02
[1]; 0.8µM FtsA alone, replicate Exp.7
  Off binding rate: 1.46E-01
[1]; 0.8µM FtsA alone, replicate Exp.8
  Off binding rate: 1.33E-01
[1]; 0.8µM, + FtsN&Z, Mean, n=4
  Off binding rate: 0.0945
[1]; 0.8µM, + FtsN&Z, replicate Exp.1
  Off binding rate: 3.85E-02
[1]; 0.8µM, + FtsN&Z, replicate Exp.2
  Off binding rate: 2.22E-01
[1]; 0.8µM, + FtsN&Z, replicate Exp.3
  Off binding rate: 6.03E-02
[1]; 0.8µM, + FtsN&Z, replicate Exp.4
  Off binding rate: 5.77E-02
[1]; 0.8µM, + FtsN, Mean, n=3
  Off binding rate: 0.1881
[1]; 0.8µM, + FtsN, replicate Exp.1
  Off binding rate: 7.35E-02
[1]; 0.8µM, + FtsN, replicate Exp.2
  Off binding rate: 3.72E-01
[1]; 0.8µM, + FtsN, replicate Exp.3
  Off binding rate: 1.19E-01
[1]; 0.8µM, + FtsZ, Mean, n=8
  Off binding rate: 0.1609
[1]; 0.8µM, + FtsZ, replicate Exp.1
  Off binding rate: 2.88E-01
[1]; 0.8µM, + FtsZ, replicate Exp.2
  Off binding rate: 1.14E-01
[1]; 0.8µM, + FtsZ, replicate Exp.3
  Off binding rate: 2.71E-01
[1]; 0.8µM, + FtsZ, replicate Exp.4
  Off binding rate: 1.12E-01
[1]; 0.8µM, + FtsZ, replicate Exp.5
  Off binding rate: 1.44E-01
[1]; 0.8µM, + FtsZ, replicate Exp.6
  Off binding rate: 1.39E-01
[1]; 0.8µM, + FtsZ, replicate Exp.7
  Off binding rate: 1.37E-01
[1]; 0.8µM, + FtsZ, replicate Exp.8
  Off binding rate: 8.23E-02
[1]; Fig. S3i/S3j, 0.10 µM FtsA, summary value
  Off binding rate: 0.326 s⁻¹
[1]; Fig. S3i/S3j, 0.20 µM FtsA, summary value
  Off binding rate: 0.251 s⁻¹
[1]; Fig. S3i/S3j, 0.40 µM FtsA, summary value
  Off binding rate: 0.374 s⁻¹
[1]; Fig. S3i/S3j, 0.80 µM FtsA, summary value
  Off binding rate: 0.386 s⁻¹
[1]; in the presence of FtsZ
  membrane off-rate: around 0.20 s^−1
FtsZ; 0.60% Tris NTA, Exp. 1 (statistical analysis)
  Differential PCC: 0.40
FtsZ; 0.60% Tris NTA, Exp. 2 (statistical analysis)
  Differential PCC: 0.46
FtsZ; 0.60% Tris NTA, Exp. 3 (statistical analysis)
  Differential PCC: 0.54
FtsZ; 0.60% Tris NTA, n = 2 (WT), 3 (R286W), sd 0.02, 0.057, p-value 0.67
  Differential PCC, Mean: 0.47
FtsZ; 0.80% Tris NTA, Exp. 1 (statistical analysis)
  Differential PCC: 0.57
FtsZ; 0.80% Tris NTA, Exp. 2 (statistical analysis)
  Differential PCC: 0.48
FtsZ; 0.80% Tris NTA, Exp. 3 (statistical analysis)
  Differential PCC: 0.66
FtsZ; 0.80% Tris NTA, n = 3, 3, sd 0.05 (WT), 0.0749 (R286W), p-value 0.13
  Differential PCC, Mean: 0.57
FtsZ; 1.00% Tris NTA, Exp. 1 (statistical analysis)
  Differential PCC: 0.60
FtsZ; 1.00% Tris NTA, Exp. 2 (statistical analysis)
  Differential PCC: 0.56
FtsZ; 1.00% Tris NTA, Exp. 3 (statistical analysis)
  Differential PCC: 0.51
FtsZ; 1.00% Tris NTA, n = 3, 3, sd 0.12 (WT), 0.0377 (R286W), p-value 5.89E-02
  Differential PCC, Mean: 0.56
FtsZ; 2.00% Tris NTA, Exp. 1 (statistical analysis)
  Differential PCC: 0.44
FtsZ; 2.00% Tris NTA, Exp. 2 (statistical analysis)
  Differential PCC: 0.34
FtsZ; 2.00% Tris NTA, Exp. 3 (statistical analysis)
  Differential PCC: 0.36
FtsZ; 2.00% Tris NTA, n = 3, 3, sd 0.0469 (WT), 0.04 (R286W), p-value 2.27E-03
  Differential PCC, Mean: 0.38
FtsZ; […] Tris NTA, Exp. 1 (statistical analysis)
  Differential PCC: 0.34
FtsZ; […] Tris NTA, Exp. 3 (statistical analysis)
  Differential PCC: 0.37
FtsZ; […] Tris NTA, n = 3, 3, sd 0.0371 (WT), 0.02 (R286W), p-value 5.70E-04
  Differential PCC, Mean: 0.36
